Consider four proteins from paper PMC7037157, “Parallel Strategy Increases the Thermostability and Activity of Glutamate Decarboxylase” (Molecules, 2020).

B1: GAD (glutamate decarboxylase; GAD1407) (Levilactobacillus brevis; N193D) (protein)
chain: MAMLYGKHTHETDETLKPIFGASAERHDLPKYKLAKHALEPREADRLVRDQLLDEGNSRLNLATFCQTYMEPEAVELMKDTLEKNAIDKSEYPRTAEIENRCVNIIANLWHAPEAESFTGTSTIGSSEACMLAGLAMKFAWRKRAKANGLDLTAHQPNIVISAGYQVCWEKFCVYWDIDMHVVPMDDDHMSLDVDHVLDYVDDYTIGIVGIMGITYTGQYDDLARLDAVVERYNRTTKFPVYIHVDAASGGFYTPFIEPELKWDFRLNNVISINASGHKYGLVYPGVGWVIWRDQQYLPKELVFKVSYLGGELPTMAINFSHSASQLIGQYYNFIRFGFDGYREIQEKTHDVARYLAKSLTKLGGFSLINDGHELPLICYELTADSDREWTLYDLSDRLLMKGWQVPTYPLPKNMTDRVIQRIVVRADFGMSMAHDFIDDLTQAIHDLDQAHIVFHSDPQPKKYGFTH
notes: pET28a(+)-GAD1407, expressed in E. coli BL21(DE3), Ni-NTA purified (His tag)
B2: GAD (glutamate decarboxylase; GAD1407) (Levilactobacillus brevis) (protein)
chain: B1 chain with D193N
notes: as for B1
B3: GAD (glutamate decarboxylase; GAD1407) (Levilactobacillus brevis; S325A) (protein)
chain: B1 chain with D193N, S325A
notes: as for B1
B4: GAD (glutamate decarboxylase; GAD1407) (Levilactobacillus brevis; D203E) (protein)
chain: B1 chain with D193N, D203E
notes: as for B1

Substitutions are numbered along the chain they refer to. Names may count otherwise.

Substrate in this data set: N[C@@H](CCC(=O)O)C(=O)O
The data set is described as follows: initial rates; GABA dansylated, HPLC. Conditions: 0.2 mol/L HAc-NaAc buffer, pH 4.8, 10-100 mmol/L L-glutamate, standard assay 48 °C, 40 μmol/L PLP. The class given is biochemical, Levilactobacillus brevis. From the text: initial rates; GABA dansylated, HPLC on GAD (glutamate decarboxylase; GAD1407)
In general, Km refers to the substrate concentration at which the rate is half of its maximum. The term kcat denotes the maximal rate divided by the concentration of active sites. Broadly, the kcat/Km is the second-order rate constant that governs catalysis at low substrate concentration. For the protein B1, the Km is reported as 34.35 mM, the kcat amounted to 138 s⁻¹ and the kcat/Km worked out at 4000 M⁻¹ s⁻¹.

For the protein B2, the Km was 39.72 mM, the kcat came out at 102 s⁻¹ and the kcat/Km turned out to be 2570 M⁻¹ s⁻¹.

Regarding B3, the Km turned out to be 42.39 mM, the kcat came to 176 s⁻¹ and the specificity constant (kcat/Km) amounted to 4160 M⁻¹ s⁻¹.

Regarding B4, the Km was 26.60 mM, the kcat is 40.2 s⁻¹ and the kcat/Km turned out to be 1510 M⁻¹ s⁻¹.
